Data as given in publication PMC11272584 (Nature Metabolism, 2024).
Residue numbers refer to the chain shown, from its start. Names may count otherwise.

T1: GIPR T116R (Homo sapiens, UniProt P48546, T116R)
T1 construct: host or cells: HEK293
T1 sequence (P48546 22-466 T116R): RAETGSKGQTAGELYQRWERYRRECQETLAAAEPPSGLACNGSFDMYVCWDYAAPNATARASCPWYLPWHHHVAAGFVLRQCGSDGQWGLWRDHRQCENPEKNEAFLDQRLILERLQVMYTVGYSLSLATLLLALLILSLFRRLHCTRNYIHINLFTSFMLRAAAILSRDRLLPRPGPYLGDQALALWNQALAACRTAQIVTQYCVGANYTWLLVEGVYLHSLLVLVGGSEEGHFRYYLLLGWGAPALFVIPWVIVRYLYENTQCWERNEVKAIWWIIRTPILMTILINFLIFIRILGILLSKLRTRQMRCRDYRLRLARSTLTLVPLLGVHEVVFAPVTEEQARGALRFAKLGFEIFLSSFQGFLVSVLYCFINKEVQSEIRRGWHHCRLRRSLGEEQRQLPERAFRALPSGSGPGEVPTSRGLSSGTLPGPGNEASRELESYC

T2: GIPR R164Q (Homo sapiens, UniProt P48546, R164Q)
T2 construct: host or cells: HEK293
T2 sequence (P48546 22-466 R164Q): T1 sequence (P48546 22-466 T116R) with R95T, R143Q

T3: GIPR V99I (Homo sapiens, UniProt P48546, V99I)
T3 construct: host or cells: HEK293
T3 sequence (P48546 22-466 V99I): T1 sequence (P48546 22-466 T116R) with V78I, R95T

T4: GIPR M67R (Homo sapiens, UniProt P48546, M67R)
T4 construct: host or cells: HEK293
T4 sequence (P48546 22-466 M67R): T1 sequence (P48546 22-466 T116R) with M46R, R95T

T5: GIPR R101H (Homo sapiens, UniProt P48546, R101H)
T5 construct: host or cells: HEK293
T5 sequence (P48546 22-466 R101H): T1 sequence (P48546 22-466 T116R) with R80H, R95T

T6: GIPR Y73H (Homo sapiens, UniProt P48546, Y73H)
T6 construct: host or cells: HEK293
T6 sequence (P48546 22-466 Y73H): T1 sequence (P48546 22-466 T116R) with Y52H, R95T

T7: GIPR G144S (Homo sapiens, UniProt P48546, G144S)
T7 construct: host or cells: HEK293
T7 sequence (P48546 22-466 G144S): T1 sequence (P48546 22-466 T116R) with R95T, G123S

T8: GIPR A150T (Homo sapiens, UniProt P48546, A150T)
T8 construct: host or cells: HEK293
T8 sequence (P48546 22-466 A150T): T1 sequence (P48546 22-466 T116R) with R95T, A129T

B1: T116R (protein)
chain: T1 sequence (P48546 22-466 T116R)
B2: R164Q (protein)
chain: T1 sequence (P48546 22-466 T116R) with R95T, R143Q
B3: V99I (protein)
chain: T1 sequence (P48546 22-466 T116R) with V78I, R95T
B4: M67R (protein)
chain: T1 sequence (P48546 22-466 T116R) with M46R, R95T
B5: Y73H (protein)
chain: T1 sequence (P48546 22-466 T116R) with Y52H, R95T
B6: G144S (protein)
chain: T1 sequence (P48546 22-466 T116R) with R95T, G123S
B7: A150T (protein)
chain: T1 sequence (P48546 22-466 T116R) with R95T, A129T
B8: R101H (protein)
chain: T1 sequence (P48546 22-466 T116R) with R80H, R95T

biological target: T1, GIPR T116R; assay: cAMP accumulation; type: cell-based; settings: not given

Row | Efficacy at 100pmol (cAMP) | Molecule
1 | 0.03526 | B1

biological target: T2, GIPR R164Q; assay: cAMP accumulation; type: cell-based; settings: not given

Row | Efficacy at 100pmol (cAMP) | Molecule
2 | 1.15 | B2

biological target: T3, GIPR V99I; assay: cAMP accumulation; type: cell-based; settings: not given

Row | Efficacy at 100pmol (cAMP) | Molecule
3 | 0.04155 | B3

biological target: T4, GIPR M67R; assay: cAMP accumulation; type: cell-based; settings: not given

Row | Efficacy at 100pmol (cAMP) | Molecule
4 | 0.1344 | B4

test system: GIPR variants (groups); assay: β-arrestin 2 recruitment (BRET); settings: arr part of the in vitro group;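 further: BRET readout of β-arrestin 2 recruitment in transiently transfected HEK293 cells expressing WT GIPR or a GIPR variant plus GPCR kinase 2, Rluc8 donor and citrine acceptor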

Row | Molecule | In vitro groups (β-arrestin)
5 | B4 | WT-like_arr
6 | B5 | WT-like_arr
7 | B6 | LoF_arr
8 | B3 | WT-like_arr
9 | B2 | LoF_arr
10 | B7 | WT-like_arr
11 | B1 | WT-like_arr
12 | B8 | LoF_arr

same assay, conditions: in vitro β-arrestin recruitment per GIPR variant

Row | Molecule | Beta, Barr
13 | B4 | 1.452
14 | B5 | 1.323
15 | B6 | 0
16 | B3 | 0.6225
17 | B2 | 0.3053
18 | B7 | 0.8173
19 | B1 | 0.6218
20 | B8 | 0

test system: GIPR variants (groups); assay: cAMP accumulation; type: cell-based, human; settings: cAMP part of the in vitro group
Protocol: HEK293 (CRL-1573, American Type Culture Collection) and β-arrestin 1/2 knockout cells, generated from HEK293A[48], were used for cAMP measurement, homologues competition binding and β-arrestin 2 recruitment. For the internalization assay, endosomal signalling and basal receptor localization experiments, HEK293A (R70507, Thermo Fisher) cells were used. Both cell lines were cultured at 5% CO2 at 37 °C in Roswell Park Memorial Institute GlutaMAX-I supplemented with 10% fetal bovine serum, 180 units ml^−1 penicillin, and 45 g ml^−1 streptomycin. For the cAMP and binding experiments, cells were transfected with the calcium phosphate precipitation method[49]. The polyethyleneimine (PEI) transfection method was used for the β-arrestin 2 recruitment assays[50], endosomal signalling and basal receptor localization assays, while the lipofectamine transfection method was used for the internalization assay.
cAMP production was measured with the DiscoverX Hithunter cAMP assay according to the manufacturer’s protocol (DiscoverX). […] On the day of the assay, the cells were washed twice with HEPES-buffered saline (HBS) and incubated with HBS and 1 mM 3-isobutyl-1-methylxanthine for 30 min at 37 °C. […] After the incubation, the assay medium was removed from the plate and the cells were washed with 30 µl PBS and treated with 40 µl enzyme donor–lysis buffer–chemiluminescent reagents and 10 µl cAMP antibodies for 60 min before 40 µl enzyme acceptor solution added. After a 3-h incubation on a shaking table in the dark, the cAMP accumulation was measured based on luminescence with a Perkin Elmer EnVision 2104 Multilabel Microplate Reader.
For cAMP accumulation, the data were fitted as a sigmoidal curve with a Hill slope of 1; for homologous competition binding, the data were fitted as a sigmoidal curve with a Hill slope of −1.

Row | Molecule | In vitro groups (cAMP)
21 | B4 | LoF_camp
22 | B5 | LoF_camp
23 | B6 | LoF_camp
24 | B3 | LoF_camp
25 | B2 | WT-like_camp
26 | B7 | LoF_camp
27 | B1 | LoF_camp
28 | B8 | LoF_camp

same assay, conditions: cAMP production compared with WT

Row | Molecule | percentage_camp
29 | B4 | <50% cAMP
30 | B5 | <50% cAMP
31 | B6 | <50% cAMP
32 | B3 | <50% cAMP
33 | B2 | >50% cAMP
34 | B7 | <50% cAMP
35 | B1 | <50% cAMP
36 | B8 | <50% cAMP

same assay, conditions: in vitro cAMP production per GIPR variant

Row | Molecule | Beta, cAMP
37 | B4 | 0.1344
38 | B5 | 0.06277
39 | B6 | 0.204
40 | B3 | 0.04155
41 | B2 | 1.15
42 | B7 | 0.1631
43 | B1 | 0
44 | B8 | 0

biological target: T5, GIPR R101H; assay: cAMP accumulation; type: cell-based; settings: not given

Row | Efficacy at 100pmol (cAMP) | Molecule
45 | 0 | B8

biological target: T6, GIPR Y73H; assay: cAMP accumulation; type: cell-based; settings: not given

Row | Efficacy at 100pmol (cAMP) | Molecule
46 | 0.06277 | B5

biological target: T7, GIPR G144S; assay: cAMP accumulation; type: cell-based; settings: not given

Row | Efficacy at 100pmol (cAMP) | Molecule
47 | 0.204 | B6

biological target: T8, GIPR A150T; assay: cAMP accumulation; type: cell-based; settings: not given

Row | Efficacy at 100pmol (cAMP) | Molecule
48 | 0.1631 | B7
